Test results taken from the supplement of paper PMC10201428.
± gives the standard deviation of the averaged measurements.

B1: library; a variant is named by its letters at N, in order (parent)
chain: AATGTTGTTGATGCAACCATAAAGTGATATTTAATAATTATTTATAATCAGCAACTTAACCACAAAACAACCATATATTGATATNTCACAAAACAACCATAANTTGATATTTTTGTGAATCGAGTATTTCAGCAAAACTACTGCAGTAAGAA

How the values were obtained:
[1] = variants of: B1; assay: relative integration efficiency (T-LR orientation) vs wild-type transposon end (log2 (normalized fold change)); transposon end mutated: left end; higher = more efficient transposition; settings: with VchCAST RNA-guided transposition machinery (E. coli BL21(DE3) host, lacZ target)
Summary of the method: (§1)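 Barcoded pools of 1549 left-end or 1849 right-end transposon variants were cloned into a pUC57 mini-transposon donor. Each pool was co-transformed with a T7-driven effector plasmid (CRISPR array, tniQ-cas8-cas7-cas6, tnsA-tnsB-tnsC) into E. coli BL21(DE3) and plated with 0.1 mM IPTG at 37°C for 18 h. Input plasmids and genomic integration junctions were PCR-amplified and Illumina-sequenced, with two biological output replicates and four wild-type barcodes as reference. Relative integration efficiency is output/input barcode abundance fold change, normalised to wild-type barcodes and log-transformed.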

[2] = variants of: B1; assay: relative integration efficiency (T-RL orientation) vs wild-type transposon end (log2 (normalized fold change)); transposon end mutated: left end; higher = more efficient transposition; settings: with VchCAST RNA-guided transposition machinery (E. coli BL21(DE3) host, lacZ target)
Summary of the method: as §1

In the case of AATGTTGTTGATGCAACCATAAAGTGATATTTAATAATTATTGCTGAAGCGAGACACCACCACAAAACAACCATATATTGATATCTCACAAAACAACCATAAGTTGATATTTTTGTGAATCGAGTATTTCAGCAAAACTACTGCAGTAAGAA [CG T43G A44C A46G T48A C49G A50C C52A A53G T56A T57C A58C], the “relative integration efficiency (log2)” value [1] is reported as -2.81 ± 2.2 and the “relative integration efficiency (log2)” value [2] is reported as -2.55 ± 1.

In the case of AATGTTGTTGATGCAACCATAAAGTGATATTTAATAATTATTGCGCATCAGCAACTTAACCACAAAACAACCATATATTGATATCTCACAAAACAACCATAAGTTGATATTTTTGTGAATCGAGTATTTCAGCAAAACTACTGCAGTAAGAA [CG T43G A44C T45G A46C], the “relative integration efficiency (log2)” value [1] is reported as 0.536 ± 0.48 and the “relative integration efficiency (log2)” value [2] is reported as -0.504 ± 0.27.

For AATGTTGTTGATGCAACCATAAAGTGATATTTAATAATTATTTAAAATCAGCAACTTAACCACAAAACAACCATATATTGATATCTCACAAAACAACCATAAGTTGATATTTTTGTGAATCGAGTATTTCAGCAAAACTACTGCAGTAAGAA [CG T45A], the “relative integration efficiency (log2)” value [1] was 0.403 ± 0.63 and the “relative integration efficiency (log2)” value [2] was -0.0115 ± 0.062.

With AATGTTGTTGATGCAACCATAAAGTGATATTTAATAATTATTTAATATCAGCAACTTAACCACAAAACAACCATATATTGATATCTCACAAAACAACCATAAGTTGATATTTTTGTGAATCGAGTATTTCAGCAAAACTACTGCAGTAAGAA [CG T45A A46T] the “relative integration efficiency (log2)” value [1] was -0.208 ± 0.19 and the “relative integration efficiency (log2)” value [2] was 0.192 ± 0.024.

With AATGTTGTTGATGCAACCATAAAGTGATATTTAATAATTATTTAATTACAGCAACTTAACCACAAAACAACCATATATTGATATCTCACAAAACAACCATAAGTTGATATTTTTGTGAATCGAGTATTTCAGCAAAACTACTGCAGTAAGAA [CG T45A A46T A47T T48A] the “relative integration efficiency (log2)” value [1] was 0.244 ± 0.78 and the “relative integration efficiency (log2)” value [2] was 0.0806 ± 0.061.

For AATGTTGTTGATGCAACCATAAAGTGATATTTAATAATTATTTACAATCAGCAACTTAACCACAAAACAACCATATATTGATATCTCACAAAACAACCATAAGTTGATATTTTTGTGAATCGAGTATTTCAGCAAAACTACTGCAGTAAGAA [CG T45C], the “relative integration efficiency (log2)” value [1] was -0.0724 ± 0.056 and the “relative integration efficiency (log2)” value [2] was -0.326 ± 0.093.

AATGTTGTTGATGCAACCATAAAGTGATATTTAATAATTATTTACAACCATAAAGTGATATTTAACTCAACCATATATTGATATCTCACAAAACAACCATAAGTTGATATTTTTGTGAATCGAGTATTTCAGCAAAACTACTGCAGTAAGAA [CG T45C T48C G51T C52A C55G T57G A59T C60A C61T A62T C63T A66C A67T] was tested, and the “relative integration efficiency (log2)” value [1] was -0.402 ± 1 and the “relative integration efficiency (log2)” value [2] was -5.71 ± 1.3.

In the case of AATGTTGTTGATGCAACCATAAAGTGATATTTAATAATTATTTAGAATCAGCAACTTAACCACAAAACAACCATATATTGATATCTCACAAAACAACCATAAGTTGATATTTTTGTGAATCGAGTATTTCAGCAAAACTACTGCAGTAAGAA [CG T45G], the “relative integration efficiency (log2)” value [1] is reported as -0.109 ± 0.19 and the “relative integration efficiency (log2)” value [2] is reported as -0.0406 ± 0.053.

With AATGTTGTTGATGCAACCATAAAGTGATATTTAATAATTATTTAGCATCAGCAACTTAACCACAAAACAACCATATATTGATATCTCACAAAACAACCATAAGTTGATATTTTTGTGAATCGAGTATTTCAGCAAAACTACTGCAGTAAGAA [CG T45G A46C] the “relative integration efficiency (log2)” value [1] was 0.396 ± 0.26 and the “relative integration efficiency (log2)” value [2] was -0.219 ± 0.2.

AATGTTGTTGATGCAACCATAAAGTGATATTTAATAATTATTTAGCCGCAGCAACTTAACCACAAAACAACCATATATTGATATCTCACAAAACAACCATAAGTTGATATTTTTGTGAATCGAGTATTTCAGCAAAACTACTGCAGTAAGAA [CG T45G A46C A47C T48G] was tested, and the “relative integration efficiency (log2)” value [1] was -0.0893 ± 0.7 and the “relative integration efficiency (log2)” value [2] was -0.487 ± 0.43.

In the case of AATGTTGTTGATGCAACCATAAAGTGATATTTAATAATTATTTATAAACAGCAACTTAACCACAAAACAACCATATATTGATATCTCACAAAACAACCATAAGTTGATATTTTTGTGAATCGAGTATTTCAGCAAAACTACTGCAGTAAGAA [CG T48A], the “relative integration efficiency (log2)” value [1] is reported as 0.212 ± 0.68 and the “relative integration efficiency (log2)” value [2] is reported as 0.162 ± 0.22.

With AATGTTGTTGATGCAACCATAAAGTGATATTTAATAATTATTTATAAAATGTGAGCGAGTAACAACCCAACCATATATTGATATCTCACAAAACAACCATAAGTTGATATTTTTGTGAATCGAGTATTTCAGCAAAACTACTGCAGTAAGAA [CG T48A C49A A50T C52T A53G C55G T56C T57G A59G C60T C61A A66C A67C] the “relative integration efficiency (log2)” value [1] was 0.607 ± 0.81 and the “relative integration efficiency (log2)” value [2] was -5.05 ± 1.9.

For AATGTTGTTGATGCAACCATAAAGTGATATTTAATAATTATTTATAAAGAGCAACTTAACCACAAAACAACCATATATTGATATCTCACAAAACAACCATAAGTTGATATTTTTGTGAATCGAGTATTTCAGCAAAACTACTGCAGTAAGAA [CG T48A C49G], the “relative integration efficiency (log2)” value [1] was 0.449 ± 0.71 and the “relative integration efficiency (log2)” value [2] was 0.353 ± 0.18.

AATGTTGTTGATGCAACCATAAAGTGATATTTAATAATTATTTATAAAGTCCAACTTAACCACAAAACAACCATATATTGATATCTCACAAAACAACCATAAGTTGATATTTTTGTGAATCGAGTATTTCAGCAAAACTACTGCAGTAAGAA [CG T48A C49G A50T G51C] was tested, and the “relative integration efficiency (log2)” value [1] was -2.64 ± 0.41 and the “relative integration efficiency (log2)” value [2] was -2.28 ± 0.62.

With AATGTTGTTGATGCAACCATAAAGTGATATTTAATAATTATTTATAAAGTCGTTGAATACCACAAAACAACCATATATTGATATCTCACAAAACAACCATAAGTTGATATTTTTGTGAATCGAGTATTTCAGCAAAACTACTGCAGTAAGAA [CG T48A C49G A50T G51C C52G A53T A54T C55G T56A T57A A58T] the “relative integration efficiency (log2)” value [1] was -2.96 ± 2.6 and the “relative integration efficiency (log2)” value [2] was -3.43 ± 1.1.

AATGTTGTTGATGCAACCATAAAGTGATATTTAATAATTATTTATAACCAGCAACTTAACCACAAAACAACCATATATTGATATCTCACAAAACAACCATAAGTTGATATTTTTGTGAATCGAGTATTTCAGCAAAACTACTGCAGTAAGAA [CG T48C] was tested, and the “relative integration efficiency (log2)” value [1] was -0.224 ± 0.18 and the “relative integration efficiency (log2)” value [2] was -0.219 ± 0.15.

With AATGTTGTTGATGCAACCATAAAGTGATATTTAATAATTATTTATAAGCAGCAACTTAACCACAAAACAACCATATATTGATATCTCACAAAACAACCATAAGTTGATATTTTTGTGAATCGAGTATTTCAGCAAAACTACTGCAGTAAGAA [CG T48G] the “relative integration efficiency (log2)” value [1] was 0.0472 ± 0.93 and the “relative integration efficiency (log2)” value [2] was 0.24 ± 0.2.

In the case of AATGTTGTTGATGCAACCATAAAGTGATATTTAATAATTATTTATAAGAAGCAACTTAACCACAAAACAACCATATATTGATATCTCACAAAACAACCATAAGTTGATATTTTTGTGAATCGAGTATTTCAGCAAAACTACTGCAGTAAGAA [CG T48G C49A], the “relative integration efficiency (log2)” value [1] is reported as -0.72 ± 0.49 and the “relative integration efficiency (log2)” value [2] is reported as -0.681 ± 0.47.

For AATGTTGTTGATGCAACCATAAAGTGATATTTAATAATTATTTATAAGACTCAACTTAACCACAAAACAACCATATATTGATATCTCACAAAACAACCATAAGTTGATATTTTTGTGAATCGAGTATTTCAGCAAAACTACTGCAGTAAGAA [CG T48G C49A A50C G51T], the “relative integration efficiency (log2)” value [1] was -3.52 ± 2.9 and the “relative integration efficiency (log2)” value [2] was -1.55 ± 0.54.
